Source: US20250236644A1 (University of Washington, published 2025)
Each block holds one binder with its values, some of them ahead of it.

How the values were obtained:
effector protein 3hb21 [1] = target: T1, effector protein 3hb21; test: FRET kinetics; 5 nM hinge, 3hb varied
T1 construct: Three-helix bundle built around peptide cs221B
T1 chain: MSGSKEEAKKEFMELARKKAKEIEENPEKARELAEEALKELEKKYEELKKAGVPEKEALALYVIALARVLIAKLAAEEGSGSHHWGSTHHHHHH
Protocol: (§1) FIG. 18. FRET-based quantitative analysis of the interaction between cs221F and 3hb21. Individual kinetic traces were obtained using a constant hinge concentration of 5 nM and varying 3hb concentrations as indicated by plot labels. Single exponential fits give apparent rate constants that increase linearly with the total 3hb concentration (points in pseudo-first order plot). The linear fit of kₐₚₚ against 3hb concentration gives an observed on rate that is 5 times faster than the observed on rate of the original peptide.
(§2) For FRET kinetics experiments a 2× hinge solution and 8 different 2× effector solutions at different concentrations were prepared separately. 40 μl of each effector solution were mixed with 40 μl hinge solution using a multichannel pipet and the measurement was started immediately after mixing. Fluorescence signals S at each concentration were fitted individually to the equation

effector peptide cs221B [2] = target: T2, effector peptide cs221B; test: FRET kinetics; slope of kapp against peptide concentration
T2 construct: Unlabeled
T2 peptide: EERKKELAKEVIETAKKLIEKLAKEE
Protocol: (§3) FIG. 14. Columns 1-3: FRET kinetics using extended hinges labeled with AlexaFluor™ 555 and AlexaFluor™ 647 at a constant concentration (2 nM for cs201F and cs074F, 5 nM for cs221F) and corresponding peptides at varying concentrations. Column 4: FP kinetics using TAMRA-labeled peptide cs074B at 2 nM and extended hinge cs074F at varying concentrations. All kinetic traces (rows 1-8) were fitted using a single-exponential equation (black lines). […] The slope of the linear fit gives the observed on rate kₒₙ.
as §2

effector peptide cs201B [3] = target: T3, effector peptide cs201B; test: FRET titration, 2 nM labeled hinge
T3 construct: Unlabeled
T3 peptide: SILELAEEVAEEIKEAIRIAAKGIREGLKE
Protocol: (§4) Dotted lines in spectra indicate acceptor and donor emission peaks. B) Kinetic model describing the coupling of the conformational equilibrium to the binding equilibrium. X and Y: hinge in state X and Y, respectively; P: peptide; YP: peptide bound to hinge in state Y. k₁, k₋₁, k₋₂, and […] the microscopic rate constants. C) FP characterization of unlabeled extended hinge cs074F. From left to right: binding titration at 0.1 nM TAMRA-labeled peptide and varying hinge concentrations; time course after mixing 2 nM TAMRA-labeled peptide and 100 nM hinge fitted with a single-exponential equation (black line); apparent rate constants obtained from single-exponential kinetic fits plotted against absolute hinge concentrations (circles) and fitted with a linear equation (black line). D) FRET-based reversibility experiment using the labeled extended hinge […] introduced in C). Hinge concentration is 30 nM for all traces; 1 μM peptide is added at t=0, 3 μM unlabeled competitor hinge is added after 1 h. E) Top from left to right: schematic representation of the inpainting procedure that adds two helices to the peptide cs074B yielding a three-helix bundle (3hb); cylindrical representation of 3hb_05 bound to hinge cs074; overlay of design model and crystal structure of 3hb_05. Bottom from left to right: SEC traces for hinge cs074, 3hb_05, and a mixture of both; FRET-based titration of 2 nM extended labeled hinge cs074F and varying concentrations of 3hb_05 fitted with a standard binding isotherm (back line); Distance distributions obtained from DEER experiments as described in FIG. 2 (cs074, cs074+peptide cs074B, cs074+3hb_05).
(§5) Titrations were carried out in 96-well format, with 4 replicates per plate and 24 data points per titration (23 steps of two-fold serial dilution of effector (peptide or 3hb) in the presence of double-labeled hinge at a constant concentration of 2 nM) with a final sample volume of 80 μl per well. Titration plates were incubated overnight at room temperature before measuring to ensure complete equilibration. The raw fluorescence signal (donor emission upon acceptor excitation) was fitted to the equation

effector peptide cs074B [4] = target: T4, effector peptide cs074B; test: FRET titration, 2 nM labeled hinge
T4 construct: Chemically synthesized, unlabeled
T4 peptide: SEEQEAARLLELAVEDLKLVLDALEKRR
Protocol: as §4, §5

effector protein 3hb21 [5] = target: T1, effector protein 3hb21; test: FRET titration; 2 nM labeled hinge, effector varied
Protocol: as §4, §5

effector peptide cs221B [6] = target: T2, effector peptide cs221B; test: as above
Protocol: as §4, §5

effector protein 3hb21 [7] = target: T1, effector protein 3hb21; test: FRET kinetics; 5 nM labeled hinge, slope of kapp against 3hb concentration
effector protein 3hb21 [8] = target: T1, effector protein 3hb21; test: FRET titration; 2 nM hinge cs221F, 3hb varied
Protocol: as §1, §5

effector peptide cs201B [9] = target: T3, effector peptide cs201B; test: FRET kinetics; slope of kapp against peptide concentration
Protocol: as §3, §2

effector peptide cs221B [10] = target: T2, effector peptide cs221B; test: FRET titration, 2 nM labeled hinge
Protocol: as §4, §5

effector peptide cs201B [11] = target: T3, effector peptide cs201B; test: FRET titration; 2 nM labeled hinge, effector varied
Protocol: as §4, §5

effector peptide cs074B [12] = target: T4, effector peptide cs074B; test: FRET kinetics; slope of kapp against peptide concentration
Protocol: as §3, §2

effector protein 3hb03 = target: T5, effector protein 3hb03; test: FRET titration; 2 nM labeled hinge, effector varied
T5 construct: Three-helix bundle built around peptide cs074B
T5 chain: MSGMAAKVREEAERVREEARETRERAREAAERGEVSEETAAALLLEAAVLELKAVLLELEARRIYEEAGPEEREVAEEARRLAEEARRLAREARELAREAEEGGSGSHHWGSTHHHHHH
Protocol: as §4, §5

effector protein 3hb08 = target: T6, effector protein 3hb08; test: as above
T6 construct: Three-helix bundle built around peptide cs074B
T6 chain: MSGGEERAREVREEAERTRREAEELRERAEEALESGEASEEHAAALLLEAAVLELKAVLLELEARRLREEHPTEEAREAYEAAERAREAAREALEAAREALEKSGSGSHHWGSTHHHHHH
Protocol: as §4, §5

effector protein 3hb12 = target: T7, effector protein 3hb12; test: as above
T7 construct: Three-helix bundle built around peptide cs074B
T7 chain: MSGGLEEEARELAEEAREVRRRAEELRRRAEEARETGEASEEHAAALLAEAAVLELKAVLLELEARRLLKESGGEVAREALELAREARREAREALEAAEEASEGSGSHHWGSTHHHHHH
Protocol: as §4, §5

effector protein 3hb04 = target: T8, effector protein 3hb04; test: as above
T8 construct: Three-helix bundle built around peptide cs074B
T8 chain: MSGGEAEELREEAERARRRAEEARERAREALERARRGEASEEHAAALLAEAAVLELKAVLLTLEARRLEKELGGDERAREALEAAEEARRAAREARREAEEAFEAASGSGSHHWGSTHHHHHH
Protocol: as §4, §5

effector protein 3hb05 = target: T9, effector protein 3hb05; test: as above
T9 construct: Three-helix bundle built around peptide cs074B
T9 chain: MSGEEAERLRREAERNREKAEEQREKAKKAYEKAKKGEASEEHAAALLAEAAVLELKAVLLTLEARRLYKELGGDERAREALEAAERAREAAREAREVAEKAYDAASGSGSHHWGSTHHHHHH
Protocol: as §4, §5

effector protein 3hb11 = target: T10, effector protein 3hb11; test: as above
T10 construct: Three-helix bundle built around peptide cs074B
T10 chain: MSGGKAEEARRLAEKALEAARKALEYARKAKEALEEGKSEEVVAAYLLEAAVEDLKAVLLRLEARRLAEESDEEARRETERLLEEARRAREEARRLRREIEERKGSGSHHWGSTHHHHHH
Protocol: as §4, §5

effector peptide cs074B [13] = target: T4, effector peptide cs074B; test: as above
Protocol: as §4, §5

effector peptide cs201B [14] = target: T3, effector peptide cs201B; test: FRET titration; 2 nM labeled hinge, off-target peptide varied
Protocol: (§6) The buffer for all FRET measurements was 20 mM Tris-HCl, 100 mM NaCl, 0.05% v/v TWEEN®20 at pH 8. Fluorescence spectra were recorded at room temperature using a FluoroMax™ spectrometer in a 1 cm×1 cm cuvette at a sample volume of 3 ml. FRET titrations and kinetics measurements were performed at 25° C. in 96-well plates (Corning 3686) using a Synergy Neo2™ plate reader. Excitation wavelength was 520 nm and emission wavelength was 665 nm (except for donor-donor controls for which emission wavelength was 555 nm, see FIG. 13B right column).
as §5

effector peptide cs221B [15] = target: T2, effector peptide cs221B; test: as above
Protocol: as §6, §5

fold faster observed on rate than the original peptide cs221B (effector protein 3hb21 [1]): 5 fold
kon (effector peptide cs221B [2]): 2600 M⁻¹ s⁻¹
binding result (effector peptide cs201B [3]): no binding (tested: µM concentrations)
binding result (effector peptide cs074B [4]): no binding (tested: µM concentrations)
Kd (effector protein 3hb21 [5]): 2.2 nM
Kd (effector peptide cs221B [6]): 21 nM
kon (effector protein 3hb21 [7]): 13000 M⁻¹ s⁻¹
Kd (effector protein 3hb21 [8]): < 2 nM
fold stronger KD than the original peptide cs221B (effector protein 3hb21 [8]): 20 fold
B1: FRET(extension) cs221F, labeled with AlexaFluor 555 and AlexaFluor 647 (designed binder)
chain: MSGEMVEEIEKLAEELAKKTKDCEVKKLAKKAAELAKKSTDEMKKEIVKDALELALRTKDEEVIRLALKAAVLAAESDDEEVKEVVKKALEAALKSKDEEVIRLLLLAAVLAAAAARSGSPEEKLEIAKKALELAMKSKDEEVIRLALLAAVLAARSDDEEVLKIVKKALELAMESKDVEVIRLALEAAVLAARSTDPEKKKCVYEALEKAMESKDEEEIKKELKAAVEKARSTEGSGSHHWGSTHHHHHH
modifications: the two introduced cysteines stochastically labeled with an equal mixture of AlexaFluor 555 C2 maleimide (donor) and AlexaFluor 647 C2 maleimide (acceptor)

kon (effector peptide cs201B [9]): 4500 M⁻¹ s⁻¹
binding result (effector peptide cs074B [4]): no binding (tested: µM concentrations)
binding result (effector peptide cs221B [10]): no binding (tested: µM concentrations)
Kd (effector peptide cs201B [11]): 20 nM
B2: FRET(extension) cs201F, labeled with AlexaFluor 555 and AlexaFluor 647 (designed binder)
chain: MSGDEEVQEAVERAEELREEAEELIKKARKTGDPELLRKALEALEEAVRAVEEAICRNPDNDEAVETAVRLARELKKVAEELQERAKKTGDPELLKLALRALEVAVRAVELAIKSNPDNDEAVETAVRLARELKKVAEELQERAKKTGDPELLKLALRALEVAVRAVELAIKRNPDNEEAIKTALRLARELRKVAKELIERARKTGDAELLKKALEAARVAVEAVRLAAEYNKENAEKMAELLVELAELAREVADVLIELAEKTGDPELLKKALEVLEEAVEAVRLAIEYDPDHDEAVETAVRLARELKKVAEELQERAKKTGDPELLKLALRALEVAVRAVELAIKSNPDNEEAVETAKRLAEELRKVAELLEERAKETGDPCLQELAKRAKEVADRARELAKKSNPNNGSGSHHWGSTHHHHHH
modifications: the two introduced cysteines stochastically labeled with an equal mixture of AlexaFluor 555 C2 maleimide (donor) and AlexaFluor 647 C2 maleimide (acceptor)
notes: also called FRET-labeled hinge cs201F

kon (effector peptide cs074B [12]): 170000 M⁻¹ s⁻¹
Kd (effector protein 3hb03): < 2 nM
Kd (effector protein 3hb08): < 2 nM
Kd (effector protein 3hb12): < 2 nM
Kd (effector protein 3hb04): < 2 nM
Kd (effector protein 3hb05): < 2 nM
Kd (effector protein 3hb11): < 2 nM
Kd (effector peptide cs074B [13]): < 2 nM
Kd (effector peptide cs201B [14]): 2500 nM
Kd (effector peptide cs221B [15]): 130 nM
B3: FRET(extension) cs074F, labeled with AlexaFluor 555 and AlexaFluor 647 (designed binder)
chain: DEEVQEAVERAEELREEAEELIKKARKTGDPELLRKALEALECAVRAVEEAIKRNPDNDEAVETAVRLARELKKVAEELQERAKKTGDPELLKLALRALKVAVRAVKLAIKSNPDNEEAVKTAVRLARELLKVAEELKERAEKTGDPRLLLLAAEAIAWAIEAVFLAAKASENTEGALEAARAAVKLAEVAKRIAKLLQRDAKKEGDPELLKLALRALELAVRAVELAIKENPDNDEAVETAVRLARELKKVAEELQERAKKTGDPELLKLALRALEVAVRAVELAIKSNPDNEEAVETAKRLAEELRKVAELLEERACETGDPELQELAKRAKEVADRARELAKKSNPNNGSHHHHHH
modifications: the two introduced cysteines stochastically labeled with an equal mixture of AlexaFluor 555 C2 maleimide (donor) and AlexaFluor 647 C2 maleimide (acceptor)
notes: Extended hinge cs074 used in the FRET assays; also called extended labeled hinge cs074F
